Results: patent US7906119 (Human Genome Sciences, dated 2011)

Target: PA heptamer (Bacillus anthracis, UniProt P13423 197-764)
Assay: BIAcore; PA heptamer immobilized on CM5 chip, IgG1 in solution

PA heptamer, sequence (P13423 197-764): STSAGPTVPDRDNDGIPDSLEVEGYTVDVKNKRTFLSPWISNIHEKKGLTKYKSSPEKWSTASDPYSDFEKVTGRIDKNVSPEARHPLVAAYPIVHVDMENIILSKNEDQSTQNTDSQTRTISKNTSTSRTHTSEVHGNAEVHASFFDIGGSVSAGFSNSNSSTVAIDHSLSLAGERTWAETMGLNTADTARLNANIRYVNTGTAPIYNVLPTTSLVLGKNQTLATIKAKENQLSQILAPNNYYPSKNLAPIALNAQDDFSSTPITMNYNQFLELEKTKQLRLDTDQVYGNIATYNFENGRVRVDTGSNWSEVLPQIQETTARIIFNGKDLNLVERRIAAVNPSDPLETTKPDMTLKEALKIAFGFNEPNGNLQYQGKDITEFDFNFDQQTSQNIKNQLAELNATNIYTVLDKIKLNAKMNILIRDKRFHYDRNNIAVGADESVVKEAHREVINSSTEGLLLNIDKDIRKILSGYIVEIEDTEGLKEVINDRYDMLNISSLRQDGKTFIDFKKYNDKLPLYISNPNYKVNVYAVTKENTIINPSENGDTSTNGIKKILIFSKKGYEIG

B1: PWD0283 (IgG1 format) (antibody, V domains shown)
VH: EVQLLESGGGLVQPGGSLRLSCAASGFTFSSYATSWVRQAPGKGLEWVSAISGSGGSTYYADSVKGRFTISRDNSKNTLYLQMNSLRAEDTAVYYCARVGGAIRFDSWGRGTLVTVSS
VL: SYELTQPPSASETPGQRVSISCSGGTSNIGSNTINWYQQVPGTAPKLLIYFNNRRPAGVPARFSASKSGTSASLTISGLQSEDEADYYCSAWDDSLSGVVFGGGTKLTVLG
B1 showed a Kd of 0.187 nM, a koff of 0.000426 s⁻¹ and a kon of 2.28e+06 M⁻¹ s⁻¹.
